How the values were obtained:
ena_drome ena = ena_drome ena (UniProt Q8T4F7)
abl_drome Abl = abl_drome Abl (UniProt P00522)
Sequence of UniProt P00522 (P00522 whole entry): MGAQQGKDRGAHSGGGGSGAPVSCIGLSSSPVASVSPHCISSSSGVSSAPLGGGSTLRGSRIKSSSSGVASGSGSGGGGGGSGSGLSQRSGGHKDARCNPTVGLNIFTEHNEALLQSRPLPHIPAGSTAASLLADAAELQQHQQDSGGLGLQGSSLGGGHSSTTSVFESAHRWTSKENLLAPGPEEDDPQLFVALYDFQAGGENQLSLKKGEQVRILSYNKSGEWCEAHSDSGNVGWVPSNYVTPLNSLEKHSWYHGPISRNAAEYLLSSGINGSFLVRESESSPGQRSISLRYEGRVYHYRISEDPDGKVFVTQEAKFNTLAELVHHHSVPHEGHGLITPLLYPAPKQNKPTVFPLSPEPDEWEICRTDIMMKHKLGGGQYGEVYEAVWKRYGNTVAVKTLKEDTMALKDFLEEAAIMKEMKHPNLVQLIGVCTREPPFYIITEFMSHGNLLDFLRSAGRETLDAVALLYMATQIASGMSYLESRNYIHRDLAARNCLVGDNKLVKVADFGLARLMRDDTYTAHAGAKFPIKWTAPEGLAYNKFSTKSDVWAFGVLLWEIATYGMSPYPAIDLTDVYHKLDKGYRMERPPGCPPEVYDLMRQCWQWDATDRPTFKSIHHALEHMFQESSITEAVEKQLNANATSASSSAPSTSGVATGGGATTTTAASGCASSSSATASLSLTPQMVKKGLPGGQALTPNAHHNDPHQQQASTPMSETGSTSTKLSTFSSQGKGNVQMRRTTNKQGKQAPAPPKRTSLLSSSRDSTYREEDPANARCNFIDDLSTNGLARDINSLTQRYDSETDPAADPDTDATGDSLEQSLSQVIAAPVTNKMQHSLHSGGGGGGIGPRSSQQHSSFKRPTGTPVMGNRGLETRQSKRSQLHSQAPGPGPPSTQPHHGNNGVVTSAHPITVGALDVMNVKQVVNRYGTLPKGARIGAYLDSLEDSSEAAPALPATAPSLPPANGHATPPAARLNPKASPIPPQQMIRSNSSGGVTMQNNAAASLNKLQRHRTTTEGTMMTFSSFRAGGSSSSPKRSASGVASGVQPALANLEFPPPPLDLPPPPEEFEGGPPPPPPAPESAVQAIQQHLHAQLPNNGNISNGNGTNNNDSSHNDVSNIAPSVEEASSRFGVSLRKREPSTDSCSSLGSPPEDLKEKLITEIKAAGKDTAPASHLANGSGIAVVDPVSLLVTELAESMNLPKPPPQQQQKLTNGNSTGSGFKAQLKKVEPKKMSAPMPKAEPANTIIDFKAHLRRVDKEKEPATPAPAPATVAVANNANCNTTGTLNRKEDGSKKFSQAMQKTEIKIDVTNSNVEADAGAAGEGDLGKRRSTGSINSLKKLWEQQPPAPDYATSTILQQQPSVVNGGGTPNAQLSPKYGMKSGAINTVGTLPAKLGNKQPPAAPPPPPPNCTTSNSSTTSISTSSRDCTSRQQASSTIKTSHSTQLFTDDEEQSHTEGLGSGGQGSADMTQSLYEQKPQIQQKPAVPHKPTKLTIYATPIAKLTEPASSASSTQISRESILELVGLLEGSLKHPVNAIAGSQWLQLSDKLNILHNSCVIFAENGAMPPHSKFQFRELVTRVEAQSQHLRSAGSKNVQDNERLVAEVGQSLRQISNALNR

Sequence of UniProt Q8T4F7 (Q8T4F7 whole entry): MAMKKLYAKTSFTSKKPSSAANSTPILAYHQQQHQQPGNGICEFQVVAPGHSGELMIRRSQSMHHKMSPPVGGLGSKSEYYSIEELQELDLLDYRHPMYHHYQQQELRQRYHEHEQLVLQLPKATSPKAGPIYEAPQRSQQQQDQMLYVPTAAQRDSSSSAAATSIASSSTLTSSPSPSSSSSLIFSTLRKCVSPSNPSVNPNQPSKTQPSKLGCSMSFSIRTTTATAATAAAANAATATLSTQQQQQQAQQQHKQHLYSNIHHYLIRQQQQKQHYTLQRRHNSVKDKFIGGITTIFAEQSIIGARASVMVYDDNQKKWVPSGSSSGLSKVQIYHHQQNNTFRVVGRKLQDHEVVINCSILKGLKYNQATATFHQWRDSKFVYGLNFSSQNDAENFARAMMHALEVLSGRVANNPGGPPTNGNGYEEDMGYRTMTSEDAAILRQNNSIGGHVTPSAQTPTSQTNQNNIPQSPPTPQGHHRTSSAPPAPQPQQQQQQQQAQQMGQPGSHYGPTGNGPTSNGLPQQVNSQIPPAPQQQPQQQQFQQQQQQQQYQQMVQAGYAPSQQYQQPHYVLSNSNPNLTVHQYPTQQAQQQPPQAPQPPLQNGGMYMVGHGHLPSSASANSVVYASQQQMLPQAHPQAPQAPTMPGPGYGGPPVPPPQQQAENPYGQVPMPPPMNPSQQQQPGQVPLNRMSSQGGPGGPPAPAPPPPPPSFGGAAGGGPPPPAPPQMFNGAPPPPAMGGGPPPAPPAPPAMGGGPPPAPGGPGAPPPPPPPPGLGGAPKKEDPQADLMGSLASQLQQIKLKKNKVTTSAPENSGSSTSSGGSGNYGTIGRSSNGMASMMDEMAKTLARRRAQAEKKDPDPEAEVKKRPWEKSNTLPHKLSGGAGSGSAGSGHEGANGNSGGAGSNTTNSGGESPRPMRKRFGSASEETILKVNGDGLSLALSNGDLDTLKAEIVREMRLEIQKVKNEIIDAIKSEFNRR

Tyrosine-protein phosphatase Lar (Drosophila melanogaster (Fruit fly)), P16621 C1670S
effect of a mutation on the interaction (ena_drome ena): decreasing interaction | effect of a mutation on the interaction (abl_drome Abl): decreasing interaction
